Consider 37 molecules from US20090143319, “Transcription factor decoy” (AnGesMG, Inc., published 2009).

Holding throughout (conditions): protein: extract; tags: native, Jurkat nuclear extract (TransAM NF-kB p65 kit, Active Motif)
Series [1] concerns the target T1, NF-kB p65 (RelA) (UniProt Q04206 Q04206:1-551). Kind of series: competition. The method, then: (§1) Complete Lysis Buffer, Complete Binding Buffer, 1× Wash Buffer and 1× Antibody Binding Buffer are prepared. […] Jurkat nuclear extract was diluted with Complete Lysis Buffer to a concentration of 125 μg protein/mL.
(§2) To each of the wells in a plate included in the kit, on which a NF-κB-binding nucleic acid is preliminarily immobilized, 30 μL each of the NF-κB Decoy Oligonucleotide Dilution prepared in (1) described above is added. To the wells of the blank and control, 30 μL each of Complete Binding Buffer was added. Then 20 μL each of the above-described Jurkat nuclear extract was added to each well. To each of the wells of the blank and control, 20 μL each of Complete Lysis Buffer was added. After shaking the plate at room temperature for 1 hour, each well was washed with 200 μL of 1× Wash Buffer 3 times, and 100 μL each of rabbit anti-NF-κB p65 antibody 1000-fold diluted with 1× Antibody Binding Buffer was added, followed by shaking the plate at room temperature for 1 hour. Thereafter, each well was washed with 200 μL of 1× Wash Buffer 3 times, and 100 μL each of HRP-labeled anti-rabbit IgG antibody 1000-fold diluted with 1× Antibody Binding Buffer was added to each well, followed by shaking the plate at room temperature for 1 hour. Thereafter, each well was washed with 200 μL each of 1× Wash Buffer 4 times, and 100 μL each of Developing Solution was added, followed by allowing coloring reaction in a dark room for 5 minutes. After the reaction, the coloring reaction was stopped by adding 100 μL each of Stop Solution. […] The percentage of the absorbance of each NF-κB decoy oligonucleotide at each of the concentrations was calculated taking the ratio of absorbances of the well of control as 100, and IC₅₀ of each decoy oligonucleotide was calculated from the approximate curve obtained by plotting the mean values of the above-mentioned percent absorbance.

The target in series [2] is T1, NF-kB p65 (RelA). As to the kind of experiment: competition; 0.16 relative to SEQ-X-PS (Table 7). The method, then: as §1
as §2, with “hour.” for “hour. Thereafter, each well was washed with 200 μL of 1× Wash Buffer 3 times, and 100 μL each of HRP-labeled anti-rabbit IgG antibody 1000-fold diluted with 1× Antibody Binding Buffer was added to each well, followed by shaking the plate at room temperature for 1 hour. Thereafter, each well was washed with 200 μL each of 1× Wash Buffer 4 times, and 100 μL each of Developing Solution was added, followed by allowing coloring reaction in a dark room for 5 minutes. After the reaction, the coloring reaction was stopped by adding 100 μL each of Stop Solution.”

Series [3] deals with T1, NF-kB p65 (RelA). As to the kind of experiment: competition; 0.60 relative to SEQ-X-PS (Table 7). The method, then: as §1
as §2, with “hour.” for “hour. Thereafter, each well was washed with 200 μL of 1× Wash Buffer 3 times, and 100 μL each of HRP-labeled anti-rabbit IgG antibody 1000-fold diluted with 1× Antibody Binding Buffer was added to each well, followed by shaking the plate at room temperature for 1 hour. Thereafter, each well was washed with 200 μL each of 1× Wash Buffer 4 times, and 100 μL each of Developing Solution was added, followed by allowing coloring reaction in a dark room for 5 minutes. After the reaction, the coloring reaction was stopped by adding 100 μL each of Stop Solution.”

T1 sequence (Q04206 whole entry, one chain of several): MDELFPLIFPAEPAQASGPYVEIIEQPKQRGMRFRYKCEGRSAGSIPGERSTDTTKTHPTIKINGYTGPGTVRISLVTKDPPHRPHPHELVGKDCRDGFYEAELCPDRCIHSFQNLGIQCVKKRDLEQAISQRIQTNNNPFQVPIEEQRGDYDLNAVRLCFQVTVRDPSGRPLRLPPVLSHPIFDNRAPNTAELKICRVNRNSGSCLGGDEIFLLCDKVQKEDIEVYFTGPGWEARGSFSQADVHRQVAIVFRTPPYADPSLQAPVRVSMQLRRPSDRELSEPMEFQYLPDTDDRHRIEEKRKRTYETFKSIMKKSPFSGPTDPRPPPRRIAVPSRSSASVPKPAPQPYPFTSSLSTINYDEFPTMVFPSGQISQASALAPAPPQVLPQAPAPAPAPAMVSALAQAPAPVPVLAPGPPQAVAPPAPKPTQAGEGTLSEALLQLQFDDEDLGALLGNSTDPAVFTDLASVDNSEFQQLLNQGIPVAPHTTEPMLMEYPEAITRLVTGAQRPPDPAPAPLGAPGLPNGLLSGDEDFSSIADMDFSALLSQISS

B1: SEQ-18 (dsDNA)
DNA 1: CTTGAGGGGATTTCCCC
DNA 2: GGGGAAATCCCCTCAAG
As to B1, in the series with NF-kB p65 (RelA) [1], the binding signal was 0.28 IC50 ratio to SEQ-I.

B2: SEQ-34 (dsDNA)
DNA 1: GAGGGGATTTCCCC
DNA 2: GGGGAAATCCCCTC
modifications: PS (*): G*A*GGGGATTT*C*CCC / antisense 5'-G*GGGAAA*T*C*CCCTC
In the case of B2, in the series with NF-kB p65 (RelA) [1], the binding signal is 0.014 IC50 ratio to SEQ-x.

B3: SEQ-31 (dsDNA)
DNA 1: TTGAGGGGATTTCCCCCC
DNA 2: GGGGGGAAATCCCCTCAA
On to B3, for which the binding signal with NF-kB p65 (RelA) [1] is 0.84 IC50 ratio to SEQ-I.

B4: SEQ-45 (dsDNA)
DNA 1: CCTTGAAGGGATTTCCCTCC
DNA 2: GGAGGGAAATCCCTTCAAGG
modifications: PS (*): C*C*TTGAAGGGATTTCCCT*C*C / 3'-G*G*…*A*A*GGGA*G*G
Turning to B4, the binding signal with NF-kB p65 (RelA) [2] was 1.43 IC50 ratio to SEQ-x.

B5: SEQ-17 (dsDNA)
DNA 1: TTGAGGGGATTTCCCC
DNA 2: GGGGAAATCCCCTCAA
As for B5, the binding signal in the series with NF-kB p65 (RelA) [1] is 0.3 IC50 ratio to SEQ-I.

B6: SEQ-49 (dsDNA)
DNA 1: CCTTGAAGGGACTTTCCTCC
DNA 2: GGAGGAAAGTCCCTTCAAGG
modifications: PS (*): C*C*TTGAAGGGACTTTCCT*C*C / 3'-G*G*…*G*A*AAGGA*G*G
As for B6, in the series with NF-kB p65 (RelA) [1], the binding signal was 0.19 IC50 ratio to SEQ-x.

B7: SEQ-20 (dsDNA)
DNA 1: GGGGATTTCCCCC
DNA 2: GGGGGAAATCCCC
For the molecule B7, the binding signal with NF-kB p65 (RelA) [1] was > 3.45 IC50 ratio to SEQ-I.

B8: SEQ-38 (dsDNA)
DNA 1: TTGAGGGGATTTCCCC
DNA 2: GGGGAAATCCCCTCAA
modifications: PS (*): TTG*A*GGGGATTT*C*CCC / antisense 5'-GGGGAAA*T*C*CCCTCAA
Regarding B8, in the series with NF-kB p65 (RelA) [1], the binding signal was 0.011 IC50 ratio to SEQ-x.

B9: SEQ-16 (dsDNA)
DNA 1: TGAGGGGATTTCCCC
DNA 2: GGGGAAATCCCCTCA
As to B9, the binding signal with NF-kB p65 (RelA) [1] is 0.42 IC50 ratio to SEQ-I.

B10: SEQ-32 (dsDNA)
DNA 1: CTTGAGGGGATTTCCCCCC
DNA 2: GGGGGGAAATCCCCTCAAG
With B10, the binding signal in the series with NF-kB p65 (RelA) [1] is 0.76 IC50 ratio to SEQ-I.

B11: SEQ-K (dsDNA)
DNA 1: AGTTGAAGGGATTTCCCTAGGC
DNA 2: GCCTAGGGAAATCCCTTCAACT
On to B11, for which, in the series with NF-kB p65 (RelA) [1], the binding signal was > 1.48 IC50 ratio to SEQ-x.

B12: SEQ-13 (dsDNA)
DNA 1: GGGGATTTCCCC
DNA 2: GGGGAAATCCCC
On to B12, for which the binding signal in the series with NF-kB p65 (RelA) [1] was > 2.87 IC50 ratio to SEQ-I.

B13: SEQ-15 (dsDNA)
DNA 1: GAGGGGATTTCCCC
DNA 2: GGGGAAATCCCCTC
Take B13: the binding signal with NF-kB p65 (RelA) [1] is 0.61 IC50 ratio to SEQ-I.

B14: SEQ-46 (dsDNA)
DNA 1: CCTTGAAGGGACTTTCCTCC
DNA 2: GGAGGAAAGTCCCTTCAAGG
modifications: PS at 2 bonds at each end of both strands
As to B14, the binding signal in the series with NF-kB p65 (RelA) [1] is > 1.67 IC50 ratio to SEQ-x.

B15: SEQ-27 (dsDNA)
DNA 1: GGGGATTTCCCCCC
DNA 2: GGGGGGAAATCCCC
Consider B15, for which the binding signal with NF-kB p65 (RelA) [1] is > 2.2 IC50 ratio to SEQ-I.

B16: SEQ-40 (mixed)
DNA: CCTTGAGGGGATTTCCCCCC
mixed: GGGGGGAAATCCCCUCAAGG
modifications: LNA/RNA marked by bold/italic, positions not recoverable from text
As for B16, in the series with NF-kB p65 (RelA) [1], the binding signal was > 2.93 IC50 ratio to SEQ-x.

B17: SEQ-21 (dsDNA)
DNA 1: AGGGGATTTCCCCC
DNA 2: GGGGGAAATCCCCT
As for B17, the binding signal in the series with NF-kB p65 (RelA) [1] is 2.07 IC50 ratio to SEQ-I.

B18: SEQ-28 (dsDNA)
DNA 1: AGGGGATTTCCCCCC
DNA 2: GGGGGGAAATCCCCT
With B18, the binding signal with NF-kB p65 (RelA) [1] was > 2.2 IC50 ratio to SEQ-I.

B19: SEQ-29 (dsDNA)
DNA 1: GAGGGGATTTCCCCCC
DNA 2: GGGGGGAAATCCCCTC
Take B19: the binding signal with NF-kB p65 (RelA) [1] was 2.17 IC50 ratio to SEQ-I.

B20: SEQ-37 (dsDNA)
DNA 1: TTGAGGGGATTTCCCC
DNA 2: GGGGAAATCCCCTCAA
modifications: PS (*): T*T*G*A*GGGGATTT*C*CCC / antisense 5'-G*G*GGAAA*T*C*CCCTCAA
With B20, in the series with NF-kB p65 (RelA) [1], the binding signal is 0.015 IC50 ratio to SEQ-x.

B21: SEQ-M (dsDNA)
DNA 1: ACCAAGGGATTTCCCTGTCCCAC
DNA 2: GTGGGACAGGGAAATCCCTTGGT
On to B21, for which the binding signal with NF-kB p65 (RelA) [1] was > 1.48 IC50 ratio to SEQ-x.

B22: SEQ-48 (dsDNA)
DNA 1: CCTTGAAGGGACTTTCCTCC
DNA 2: GGAGGAAAGTCCCTTCAAGG
modifications: PS (*): C*C*TTGAAGGGACTTTCCT*C*C / 3'-G*G*AACTTCC*C*T*GAAAGGA*G*G
On to B22, for which the binding signal with NF-kB p65 (RelA) [1] was 0.2 IC50 ratio to SEQ-x.

B23: SEQ-22 (dsDNA)
DNA 1: GAGGGGATTTCCCCC
DNA 2: GGGGGAAATCCCCTC
In the case of B23, the binding signal with NF-kB p65 (RelA) [1] was 1.09 IC50 ratio to SEQ-I.

B24: SEQ-14 (dsDNA)
DNA 1: AGGGGATTTCCCC
DNA 2: GGGGAAATCCCCT
With B24, the binding signal with NF-kB p65 (RelA) [1] is 1.39 IC50 ratio to SEQ-I.

B25: SEQ-33 (dsDNA)
DNA 1: GAGGGGATTTCCCC
DNA 2: GGGGAAATCCCCTC
modifications: PS (*): G*A*GGGGATTT*C*CCC / antisense 5'-GGGGAAA*T*C*CCCTC
Turning to B25, in the series with NF-kB p65 (RelA) [1], the binding signal was 0.021 IC50 ratio to SEQ-x.

B26: SEQ-19 (dsDNA)
DNA 1: CCTTGAGGGGATTTCCCC
DNA 2: GGGGAAATCCCCTCAAGG
As to B26, in the series with NF-kB p65 (RelA) [1], the binding signal was 0.26 IC50 ratio to SEQ-I.

B27: SEQ-44 (dsDNA)
DNA 1: CCTTGAAGGGATTTCCCTCC
DNA 2: GGAGGGAAATCCCTTCAAGG
modifications: PS (*): C*C*TTGAAGGGATTTCCCT*C*C / 3'-G*G*AA*C*T*…*G*G
B27: in the series with NF-kB p65 (RelA) [3], the binding signal was > 1.67 IC50 ratio to SEQ-x.

B28: SEQ-23 (dsDNA)
DNA 1: TGAGGGGATTTCCCCC
DNA 2: GGGGGAAATCCCCTCA
Regarding B28, the binding signal with NF-kB p65 (RelA) [1] is 0.69 IC50 ratio to SEQ-I.

B29: SEQ-9 (dsDNA)
DNA 1: CCTTGAGGGGATTTCCCCCC
DNA 2: GGGGGGAAATCCCCTCAAGG
modifications: PS (*): C*C*TTG*A*GGGGATTT*C*CCCCC / antisense 5'-G*G*GGGGAAA*T*C*CCCTCAAGG
As to B29, the binding signal with NF-kB p65 (RelA) [1] was 0.02 IC50 ratio to SEQ-x.

B30: SEQ-47 (dsDNA)
DNA 1: CCTTGAAGGGACTTTCCTCC
DNA 2: GGAGGAAAGTCCCTTCAAGG
modifications: PS (*): C*C*TTGAAGGGACTTTCCT*C*C / 3'-G*G*AAC*T*T*…*G*G
Turning to B30, the binding signal with NF-kB p65 (RelA) [1] was 0.72 IC50 ratio to SEQ-x.

B31: SEQ-30 (dsDNA)
DNA 1: TGAGGGGATTTCCCCCC
DNA 2: GGGGGGAAATCCCCTCA
Turning to B31, the binding signal in the series with NF-kB p65 (RelA) [1] is 1.24 IC50 ratio to SEQ-I.

B32: SEQ-26 (dsDNA)
DNA 1: CCTTGAGGGGATTTCCCCC
DNA 2: GGGGGAAATCCCCTCAAGG
In the case of B32, the binding signal with NF-kB p65 (RelA) [1] is 0.43 IC50 ratio to SEQ-I.

B33: SEQ-L (dsDNA)
DNA 1: CCTTGAGGGGACTTTCCCCC
DNA 2: GGGGGAAAGTCCCCTCAAGG
B33: the binding signal with NF-kB p65 (RelA) [1] was 0.66 IC50 ratio to SEQ-x.

B34: SEQ-24 (dsDNA)
DNA 1: TTGAGGGGATTTCCCCC
DNA 2: GGGGGAAATCCCCTCAA
As to B34, in the series with NF-kB p65 (RelA) [1], the binding signal is 0.52 IC50 ratio to SEQ-I.

B35: SEQ-25 (dsDNA)
DNA 1: CTTGAGGGGATTTCCCCC
DNA 2: GGGGGAAATCCCCTCAAG
On to B35, for which, in the series with NF-kB p65 (RelA) [1], the binding signal is 0.41 IC50 ratio to SEQ-I.

B36: SEQ-35 (dsDNA)
DNA 1: GAGGGGATTTCCCC
DNA 2: GGGGAAATCCCCTC
modifications: PS (*): G*A*GGGGATTT*C*CCC / antisense 3'-CTCCC*C*T*AAAG*G*GGG (so in the source)
Take B36: in the series with NF-kB p65 (RelA) [1], the binding signal is 0.015 IC50 ratio to SEQ-x.

B37: SEQ-36 (dsDNA)
DNA 1: TTGAGGGGATTTCCCC
DNA 2: GGGGAAATCCCCTCAA
modifications: PS (*): T*TG*A*GGGGATTT*C*CCC / antisense 5'-G*GGGAAA*T*C*CCCTCAA
Consider B37, for which, in the series with NF-kB p65 (RelA) [1], the binding signal is 0.012 IC50 ratio to SEQ-x.
